The source of these data is PMC10567574, “piRNA processing by a trimeric Schlafen-domain nuclease” (Nature, 2023).

To fix the notation:
B2: TOFU-6 eTUDOR domain (residues 119-314) (domain or fragment, C. elegans, UniProt Q09293 119-314, looked up)
chain: VLLSSSWLPLNKDIEVEVVDYLPSSSVAPDLFALTLLRINDSSMKEKYDSMHEKMNAYAQIVPFDSELEIGYDGVFRDAPRSVRRVRRISATKLYLVDFGKIINYEKAKCFQLPKVFQSMPTRVSLCGLDGLTWSPVAIPSFDNIREVVKKWGQMENSTLHAMACGFQGSINMINLFCGKSILADRLQRKGVCEYL
notes: TOFU-6, C. elegans, eTUDOR domain, residues 119-314; also called extended TUDOR domain of TOFU-6

Holding throughout (conditions): both partners purified
The target of assay [1] is T1, MBP-TOFU-6^eTUDOR domain (C. elegans, UniProt Q09293 119-314).
T1 construct: TOFU-6, C. elegans, eTUDOR domain (residues 119-314 as stated for TOFU-6^eTUDOR); source: purified recombinant
T1 sequence (looked up): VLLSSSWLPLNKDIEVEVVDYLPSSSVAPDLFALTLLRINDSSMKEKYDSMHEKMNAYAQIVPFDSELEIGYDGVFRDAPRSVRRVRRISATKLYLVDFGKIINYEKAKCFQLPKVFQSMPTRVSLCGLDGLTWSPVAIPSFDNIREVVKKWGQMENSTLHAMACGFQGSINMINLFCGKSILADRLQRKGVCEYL
Briefly: pull-down; purified MBP-TOFU-6^eTUDOR constructs as bait (MBP pull-down) and GST-tagged TOFU-1 constructs as bait (GST pull-down); 20 mM Tris/HCl pH 7.5, 150 mM NaCl, 10% glycerol, 0.05% NP40, 1 mM DTT; SDS-PAGE with Coomassie staining.

The target in assay [2] is T2, MBP-tagged TOFU-1^82-373 (C. elegans, UniProt O17608 82-373).
T2 construct: TOFU-1 (SLFL-1), C. elegans, residues 82-373; source: E. coli BL21(DE3) derivative, purified; not shown: MBP, N-terminal, kept
T2 sequence (looked up): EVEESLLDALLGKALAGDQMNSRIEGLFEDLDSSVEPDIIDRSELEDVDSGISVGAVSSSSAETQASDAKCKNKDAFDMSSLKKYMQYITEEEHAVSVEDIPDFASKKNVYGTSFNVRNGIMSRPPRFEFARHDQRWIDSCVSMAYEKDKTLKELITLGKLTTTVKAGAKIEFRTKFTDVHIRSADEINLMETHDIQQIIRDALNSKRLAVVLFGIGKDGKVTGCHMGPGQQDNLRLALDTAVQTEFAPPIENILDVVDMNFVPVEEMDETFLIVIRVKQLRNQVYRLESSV
In words: pull-down; purified MBP-tagged TOFU-1 as bait on amylose beads, incubated with excess prey; 20 mM Tris/HCl pH 7.5, 150 mM NaCl, 10% glycerol, 0.05% NP40, 1 mM DTT; SDS-PAGE with Coomassie staining.

In assay [3] the target is B2. In words: SEC; purified proteins alone or mixed at 20-40 uM, 1 h on ice; Superdex 200 Increase 3.2/300 in 20 mM Tris/HCl pH 7.5, 150 mM NaCl, 2 mM DTT; elution volumes compared, peak fractions on SDS-PAGE. For orientation: In gel filtration, larger molecules generally elute earlier.
Assay [4] concerns the target T3, TOFU-6^eTUDOR V266E (C. elegans, UniProt Q09293 119-314, V266E).
T3 construct: TOFU-6, C. elegans, eTUDOR domain (residues 119-314 as stated for TOFU-6^eTUDOR) with V266E; source: purified recombinant
T3 sequence (looked up): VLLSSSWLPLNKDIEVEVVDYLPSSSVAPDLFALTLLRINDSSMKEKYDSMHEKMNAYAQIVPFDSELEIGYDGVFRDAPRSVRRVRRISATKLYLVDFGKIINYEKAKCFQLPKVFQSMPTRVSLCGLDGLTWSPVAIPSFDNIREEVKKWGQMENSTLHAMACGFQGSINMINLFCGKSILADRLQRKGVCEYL
The description is as above.

The target in assay [5] is B2. Briefly: ITC; TOFU-6^eTUDOR (injectant, 400-450 uM) titrated into TOFU-1^W-82-113 (cell, 45-48 uM); 25 C; 20 mM Tris, 250 mM NaCl, 0.5 mM TCEP, pH 7.50; mean of three experiments. (Isothermal titration calorimetry measures the heat released or taken up as one component is titrated into another.)

B1: GST-tagged TOFU-1^82-113 (peptide, UniProt O17608 82-113, looked up)
chain: EVEESLLDALLGKALAGDQMNSRIEGLFEDLD
notes: also called TOFU-1^pep; source: purified recombinant; not shown: GST, N-terminal, kept
Regarding B1, in assay [1], the binding result was “binds”. For the molecule B2, the binding result in assay [2] is given as “binds”.

B3: TOFU-1^82-172 (domain or fragment, C. elegans, UniProt O17608 82-172, looked up)
chain: EVEESLLDALLGKALAGDQMNSRIEGLFEDLDSSVEPDIIDRSELEDVDSGISVGAVSSSSAETQASDAKCKNKDAFDMSSLKKYMQYITE
notes: also called TOFU-1^N; source: E. coli BL21(DE3) derivative, purified
B3: the binding result in assay [3] and in assay [4] was “binds” each time.

B4: TOFU-1^pep (residues 82-113) (peptide, UniProt O17608 82-113, looked up)
chain: EVEESLLDALLGKALAGDQMNSRIEGLFEDLD
notes: also called first helix of the N-terminal part of TOFU-1; source: E. coli BL21(DE3) derivative, purified
For B4, the binding result in assay [3] was “binds”.

B5: TOFU-1^82-172 L88R/L92R (domain or fragment, C. elegans, UniProt O17608 82-172, looked up)
chain: EVEESLRDALRGKALAGDQMNSRIEGLFEDLDSSVEPDIIDRSELEDVDSGISVGAVSSSSAETQASDAKCKNKDAFDMSSLKKYMQYITE
notes: source: purified recombinant
Regarding B5, in assay [3], the binding result was “binds”.

B6: TOFU-1^W-82-113 (peptide)
chain: WEVEESLLDALLGKALAGDQMNSRIEGLFEDLD
notes: tryptophan residue added at the N terminus so that the concentration can be determined; Used for ITC and crystallization; also called TOFU-1^pep; TOFU-1 peptide; source: purified (engineered TOFU-1 peptide)
Broadly, the Kd is a measure of binding affinity in units of concentration. The low end stands for tighter binding, the high end for weaker binding. In assay [5], B6 displayed a Kd of roughly 20 µM.
